From the Immune Epitope Database (IEDB)

Assays:
HLA-B*15:03 = assay: IEDB peptide-MHC binding, purified MHC/competitive/radioactivity; filed as Kd, often an IC50 or EC50 that approximates it; ≥ and ≤ were set here for values at or beyond the usual limits of such assays
HLA-B*07:02 [1] = assay: as above
HLA-B*51:01 [2] = assay: as above
HLA-B*53:01 = assay: as above
HLA-B*40:01 [3] = assay: as above
HLA-A*24:02 = assay: IEDB peptide-MHC binding, purified MHC/competitive/fluorescence; ≥ and ≤ were set here for values at or beyond the usual limits of such assays
HLA-A*68:02 = assay: IEDB peptide-MHC binding, purified MHC/competitive/radioactivity; filed as Kd, often an IC50 or EC50 that approximates it; ≥ and ≤ were set here for values at or beyond the usual limits of such assays
HLA-B*44:02 = assay: as above
HLA-B*44:03 = assay: as above
HLA-A*02:02 = assay: as above
HLA-A*02:06 = assay: as above
HLA-A*02:03 = assay: as above
HLA-B*51:01 [4] = assay: IEDB peptide-MHC binding, purified MHC/competitive/fluorescence; filed as Kd, often an IC50 or EC50 that approximates it; ≥ and ≤ were set here for values at or beyond the usual limits of such assays; conditions: source organism: Bacillus cereus 95/8201
HLA-A*02:01 [5] = assay: IEDB peptide-MHC binding, purified MHC/competitive/fluorescence; ≥ and ≤ were set here for values at or beyond the usual limits of such assays; conditions: source organism: Zaire ebolavirus
HLA-B*35:01 = assay: IEDB peptide-MHC binding, purified MHC/competitive/radioactivity; filed as Kd, often an IC50 or EC50 that approximates it; ≥ and ≤ were set here for values at or beyond the usual limits of such assays; conditions: source organism: Dengue virus 2 Jamaica/1409/1983
HLA-B*08:01 = assay: IEDB peptide-MHC binding, purified MHC/direct/fluorescence; filed as Kd, often an IC50 or EC50 that approximates it; ≥ and ≤ were set here for values at or beyond the usual limits of such assays; conditions: source organism: Yersinia pestis
HLA-A*03:01 = assay: as above; conditions: source organism: Yersinia pestis
HLA-A*31:01 = assay: as above; conditions: source organism: Yersinia pestis
HLA-A*11:01 = assay: as above; conditions: source organism: Yersinia pestis
HLA-B*58:01 = assay: as above; conditions: source organism: Yersinia pestis
HLA-A*69:01 = assay: as above; conditions: source organism: Yersinia pestis
HLA-A*02:01 [6] = assay: as above; conditions: source organism: Yersinia pestis
HLA-B*07:02 [7] = assay: as above; conditions: source organism: Yersinia pestis
HLA-B*27:05 = assay: as above; conditions: source organism: Yersinia pestis
HLA-A*24:03 = assay: as above; conditions: source organism: Yersinia pestis
HLA-B*40:01 [8] = assay: as above; conditions: source organism: Yersinia pestis
HLA-A*01:01 = assay: as above; conditions: source organism: Yersinia pestis
HLA-B*15:01 = assay: as above; conditions: source organism: Yersinia pestis
HLA-A*26:01 = assay: as above; conditions: source organism: Yersinia pestis
[9] = source organism: Dengue virus 2 Jamaica/1409/1983
[10] = source organism: Dengue virus 1 Brazil/97-11/1997
[11] = source organism: Dengue virus 3 Martinique/1243/1999
[12] = source organism: Vaccinia virus WR
[13] = source organism: Dengue virus 1 Singapore/S275/1990
[14] = source organism: Dengue virus 4 Dominica/814669/1981
[15] = source organism: Lassa virus Josiah
[16] = source organism: Mammarenavirus whitewaterense
[17] = source organism: Dengue virus 4 Philippines/H241/1956

For SDTRSVNSF, which Kd (HLA-B*15:03; source organism: Vaccinia virus Copenhagen) is on record?
Its Kd is 92.7 nM.

For IPMTGPLVA, which Kd (HLA-B*07:02 [1]; [9]) is on record?
The Kd was 50.7 nM.

With LPVWLSYKV as the sequence, how does the Kd (HLA-B*51:01 [2]; [10]) read?
The Kd was 418 nM.

What about the Kd (HLA-B*53:01; [10]) of the same sequence?
The Kd was 164 nM.

How did the Kd (HLA-B*51:01 [2]; [11]) turn out when FETYQLWTAL was run?
The Kd was 1900 nM.

What about the Kd (HLA-B*40:01 [3]; [11]) of the same sequence?
The Kd was 10.4 nM.

How did the Kd (HLA-B*40:01 [3]; [11]) turn out when GEYRLKGESR was run?
Its Kd is 4130 nM.

How did the IC50 (HLA-A*24:02; source organism: Sudan ebolavirus) turn out when PSATKRWGF was run?
The IC50 was 10.2 µM.

How did the Kd (HLA-A*68:02; source organism: Homo sapiens) turn out when AMKAQFERDL was run?
The Kd was no less than 60000 nM.

With SLIKYKKTLL as the sequence, how does the Kd (HLA-A*68:02; source organism: Homo sapiens) read?
The Kd was 649 nM.

How did the Kd (HLA-B*15:03; [12]) turn out when FARDNQISF was run?
Its Kd is 0.195 nM.

Which Kd (HLA-A*68:02; [13]) does the source give for CVMASSVLL here?
Its Kd is 1.46 nM.

Which Kd (HLA-B*53:01; [11]) does the source give for QPMELKYSW here?
The Kd was 7.76 nM.

Which results are given for AERIGEPDY?
Kd (HLA-B*44:02; [14]): 203 nM; Kd (HLA-B*44:03; [14]): 797 nM

LETRTETWM was tested. Which Kd (HLA-B*40:01 [3]; [9]) did it give?
Its Kd is 253 nM.

Which IC50 (HLA-A*24:02; [12]) does the source give for PWTKISETK here?
The IC50 was no less than 169 µM.

How did the Kd (HLA-B*40:01 [3]; [13]) turn out when KEENLVKSM was run?
The Kd was 2830 nM.

RSRWSRKMLM was tested. Which Kd (HLA-B*07:02 [1]; [10]) did it give?
Its Kd is 154 nM.

How did the Kd (HLA-A*68:02; [15]) turn out when GLYKQPGVPV was run?
The Kd was no less than 5000 nM.

And the Kd (HLA-A*02:02; [15])?
The Kd was 1400 nM.

And the Kd (HLA-A*02:06; [15])?
Its Kd is 804 nM.

And the Kd (HLA-A*02:03; [15])?
The Kd was 23.8 nM.

Which Kd (HLA-A*68:02; [9]) does the source give for TIAVSMANI here?
Its Kd is 34.2 nM.

What does the source list for LENDEDCAHW?
Kd (HLA-B*44:02; [9]): 103 nM; Kd (HLA-B*44:03; [9]): 103 nM

What does the source list for ALNIALIAV?
Kd (HLA-A*68:02; [16]): 3090 nM; Kd (HLA-A*02:02; [16]): 0.699 nM; Kd (HLA-A*02:06; [16]): 100 nM; Kd (HLA-A*02:03; [16]): 0.225 nM

Which Kd (HLA-B*40:01 [3]; [17]) does the source give for IENTSANLSL here?
Its Kd is 34.4 nM.

With MQYVPAWIV as the sequence, how does the Kd (HLA-B*51:01 [4]) read?
The Kd was no less than 20 µM.

For TTGKLIWKV, which IC50 (HLA-A*02:01 [5]) is on record?
The IC50 was 1240 nM.

What about the IC50 (HLA-A*24:02; source organism: Zaire ebolavirus) of the same sequence?
Its IC50 is 62.7 µM.

RFLVINRLG was tested. Which IC50 (HLA-A*24:02; [12]) did it give?
The IC50 was 16.4 µM.

TAIANQATV was tested. Which Kd (HLA-A*68:02; [9]) did it give?
The Kd was 10 nM.

Which Kd (HLA-B*35:01) does the source give for DPASIAARGY here?
Its Kd is 5.62 µM.

With PKRSVMLIG as the sequence, how does the IC50 (HLA-A*24:02; [12]) read?
The IC50 was 38.4 µM.

IETLMLLALI was tested. Which Kd (HLA-B*44:03; [10]) did it give?
Its Kd is 1050 nM.

What about the Kd (HLA-B*40:01 [3]; [10]) of the same sequence?
The Kd was 206 nM.

With TEIASLPTYL as the sequence, how does the Kd (HLA-B*44:02; [17]) read?
Its Kd is 34.7 nM.

What about the Kd (HLA-B*44:03; [17]) of the same sequence?
Its Kd is 222 nM.

What about the Kd (HLA-B*40:01 [3]; [17]) of the same sequence?
Its Kd is 15 nM.

VVIFILLMLV was tested. Which Kd (HLA-A*68:02; [11]) did it give?
The Kd was 767 nM.

What about the Kd (HLA-A*02:06; [11]) of the same sequence?
The Kd was 971 nM.

How did the Kd (HLA-B*07:02 [1]; source organism: Dengue virus 2 16681-PDK53) turn out when SPGTSGSPII was run?
Its Kd is 132 nM.

With LTDEDKQNQ as the sequence, how does the Kd (HLA-B*08:01) read?
The Kd was no less than 20 µM.

What about the Kd (HLA-A*03:01) of the same sequence?
Its Kd is no less than 20 µM.

And the Kd (HLA-A*31:01)?
Its Kd is no less than 20 µM.

And the Kd (HLA-A*11:01)?
Its Kd is no less than 20 µM.

And the Kd (HLA-B*58:01)?
The Kd was no less than 20 µM.

And the Kd (HLA-A*69:01)?
Its Kd is no less than 20 µM.

And the Kd (HLA-A*02:01 [6])?
Its Kd is no less than 20 µM.

What about the Kd (HLA-B*07:02 [7]) of the same sequence?
Its Kd is no less than 20 µM.

What about the Kd (HLA-B*27:05) of the same sequence?
The Kd was no less than 20 µM.

And the Kd (HLA-A*24:03)?
The Kd was no less than 20 µM.

And the Kd (HLA-B*40:01 [8])?
Its Kd is no less than 20 µM.

And the Kd (HLA-A*01:01)?
Its Kd is no less than 20 µM.

And the Kd (HLA-B*15:01)?
The Kd was no less than 20 µM.

What about the Kd (HLA-A*26:01) of the same sequence?
The Kd was no less than 20 µM.

TAYGVLFSGV was tested. Which Kd (HLA-A*68:02; [10]) did it give?
Its Kd is 5.16 nM.

And the Kd (HLA-A*02:06; [10])?
Its Kd is 1.54 nM.

What about the Kd (HLA-A*02:03; [10]) of the same sequence?
Its Kd is 16.1 nM.

With SPGYVLGVF as the sequence, how does the Kd (HLA-B*07:02 [1]; [14]) read?
Its Kd is 8.71 nM.
